Reference: US20140087995A1 (published 2014)
Numbered stars: 1 amine (or outer) side, 2 acyl side, 3 side chain; on linkers, the order of the positions; unused ones are H or OH. Bridge positions count the residues as written; N and C are the ends. * marks the point of attachment. C20 diacid = O=C(O)CCCCCCCCCCCCCCCCCCC(=O)*; γGlu = O=C(O)[C@H](CCC(=O)[*:2])N[*:1]

T1: human amylin 3(a) receptor (human calcitonin receptor plus RAMP-3) (human, UniProt P30988 25-474; O60896 24-148, limits assumed)
T1 sequence (looked up) 1: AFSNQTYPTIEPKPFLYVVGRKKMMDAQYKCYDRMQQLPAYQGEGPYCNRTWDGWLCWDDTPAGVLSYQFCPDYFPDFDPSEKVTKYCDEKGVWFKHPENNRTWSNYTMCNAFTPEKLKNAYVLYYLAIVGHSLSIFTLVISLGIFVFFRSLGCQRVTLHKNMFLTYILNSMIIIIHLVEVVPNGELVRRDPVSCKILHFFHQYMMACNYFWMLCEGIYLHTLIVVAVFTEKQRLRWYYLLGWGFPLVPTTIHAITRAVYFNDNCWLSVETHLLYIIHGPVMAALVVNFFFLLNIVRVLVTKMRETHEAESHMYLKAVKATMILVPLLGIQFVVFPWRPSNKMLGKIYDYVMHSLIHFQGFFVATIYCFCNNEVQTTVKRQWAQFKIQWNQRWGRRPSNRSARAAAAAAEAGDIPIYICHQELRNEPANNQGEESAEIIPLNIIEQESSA
T1 sequence (looked up) 2: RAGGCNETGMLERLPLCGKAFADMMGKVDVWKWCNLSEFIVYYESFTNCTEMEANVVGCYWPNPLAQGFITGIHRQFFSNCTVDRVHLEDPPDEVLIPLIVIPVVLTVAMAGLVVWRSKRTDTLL

T2: human calcitonin receptor (human, UniProt P30988 25-474)
T2 sequence (looked up): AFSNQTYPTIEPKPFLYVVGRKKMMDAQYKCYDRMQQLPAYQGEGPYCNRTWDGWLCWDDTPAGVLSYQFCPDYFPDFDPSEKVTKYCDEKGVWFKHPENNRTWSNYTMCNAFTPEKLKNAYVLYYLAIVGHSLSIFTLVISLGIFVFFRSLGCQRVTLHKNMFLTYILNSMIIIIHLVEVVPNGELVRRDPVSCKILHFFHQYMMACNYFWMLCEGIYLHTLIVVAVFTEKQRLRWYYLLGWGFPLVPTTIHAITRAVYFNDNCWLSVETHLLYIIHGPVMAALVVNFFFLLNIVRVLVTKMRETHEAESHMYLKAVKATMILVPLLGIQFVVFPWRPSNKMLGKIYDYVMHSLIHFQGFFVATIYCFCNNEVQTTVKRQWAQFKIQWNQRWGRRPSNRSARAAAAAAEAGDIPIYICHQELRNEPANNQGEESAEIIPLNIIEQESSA


How the values were obtained:
[1] = molecular target: T1, human amylin 3(a) receptor (human …); assay: cell-based or functional assay
[2] = molecular target: T2, human calcitonin receptor; assay: cell-based or functional assay
[3] = molecular target: T1, human amylin 3(a) receptor (human …); assay: SPA competition binding, displacement of 125I-rat amylin from membranes of Amylin 3(a)/CRE-luc BHK cells (Assay V)
Description: The binding assay was performed using scintillation proximity assay (SPA) beads (RPNQ0001) from PerkinElmer and cell membranes from the Amylin 3(a)/CRE-luc cells (as described in Assay (II)) were used. Membranes were prepared in the following way; the cells were rinsed with PBS and incubated with Versene for approximately 5 min before harvesting. The cells were flushed with PBS and the cell-suspension was centrifuged for 5 min at 1000 rpm. Cells were homogenized (ultrathurrax) in a buffer containing 20 mM Na-HEPES and 10 mM EDTA (pH 7.4) and centrifuged at 20.000 rpm for 15 min. The resulting pellet was resuspended, homogenized and centrifuged (20.000 rpm, 15 min) in a buffer containing 20 mM Na-HEPES and 0.1 mM EDTA (pH 7.4, buffer 2). The resulting pellet was resuspended in buffer 2 and protein concentration was measured (BCA protein Assay, Pierce). The homogenate was kept cold during the whole procedure. The membranes were kept at −80° C. until use. The assay was performed in a 384 well Optiplate (PerkinElmer) in a total volume of 40 ul. Membranes were mixed with SPA beads. Final concentration of membranes 35 ng/μL final and SPA beads was 0.05 mg/well. Test-compounds were dissolved in DMSO and further diluted in assay buffer (50 mM Hepes, pH 7.4, 1 mM CaCl2, 5 mM MgCl₂, 0.1% OA and 0.02% Tween20). […] The final mixture was incubated with shaking at 400 rpm for 120 min at 25° C. prior to centrifugation (1500 rpm, 10 min). Samples were analyzed on TopCounter™ (Packard). The IC₅₀ was calculated using (one site binding competition analysis) GraphPad Prism5 as a measure of receptor affinity.

Ratio hCT/hAmylin funct. [1] | hAmylin-R funct. EC50 [1] [nM] | hCTR funct. EC50 [2] [nM] | IC50 [3] [nM] | Binder
0.9 | 0.12 | 0.112 | 0.105 | {C20 diacid-γGlu}-KCNTATCATQRLAEFLRHSSPNFGAIPSSTNVGSDTP-NH2 (disulfide 2-7; SMILES CC[C@H](C)[C@H](NC(=O)[C@H](C)NC(=O)CNC(=O)[C@H](Cc1ccccc1)NC(=O)[C@H](CC(N)=O)NC(=O)[C@@H]1CCCN1C(=O)[C@H](CO)NC(=O)[C@H](CO)NC(=O)[C@H](Cc1c[nH]cn1)NC(=O)[C@H](CCCNC(=N)N)NC(=O)[C@H](CC(C)C)NC(=O)[C@H](Cc1ccccc1)NC(=O)[C@H](CCC(=O)O)NC(=O)[C@H](C)NC(=O)[C@H](CC(C)C)NC(=O)[C@H](CCCNC(=N)N)NC(=O)[C@H](CCC(N)=O)NC(=O)[C@@H](NC(=O)[C@H](C)NC(=O)[C@@H]1CSSC[C@H](NC(=O)[C@H](CCCCN)NC(=O)CC[C@H](NC(=O)CCCCCCCCCCCCCCCCCCC(=O)O)C(=O)O)C(=O)N[C@@H](CC(N)=O)C(=O)N[C@@H]([C@@H](C)O)C(=O)N[C@@H](C)C(=O)N[C@@H]([C@@H](C)O)C(=O)N1)[C@@H](C)O)C(=O)N1CCC[C@H]1C(=O)N[C@@H](CO)C(=O)N[C@@H](CO)C(=O)N[C@H](C(=O)N[C@@H](CC(N)=O)C(=O)N[C@H](C(=O)NCC(=O)N[C@@H](CO)C(=O)N[C@@H](CC(=O)O)C(=O)N[C@H](C(=O)N1CCC[C@H]1C(N)=O)[C@@H](C)O)C(C)C)[C@@H](C)O, also called compound 11)
6.1 | 0.363 | 2.21 | 0.894 | {C20 diacid-γGlu}-KCNTATCATQRLAEFLRHSSPNFGAIPSSTNVGSRTY-NH2 (disulfide 2-7; SMILES CC[C@H](C)[C@H](NC(=O)[C@H](C)NC(=O)CNC(=O)[C@H](Cc1ccccc1)NC(=O)[C@H](CC(N)=O)NC(=O)[C@@H]1CCCN1C(=O)[C@H](CO)NC(=O)[C@H](CO)NC(=O)[C@H](Cc1c[nH]cn1)NC(=O)[C@H](CCCNC(=N)N)NC(=O)[C@H](CC(C)C)NC(=O)[C@H](Cc1ccccc1)NC(=O)[C@H](CCC(=O)O)NC(=O)[C@H](C)NC(=O)[C@H](CC(C)C)NC(=O)[C@H](CCCNC(=N)N)NC(=O)[C@H](CCC(N)=O)NC(=O)[C@@H](NC(=O)[C@H](C)NC(=O)[C@@H]1CSSC[C@H](NC(=O)[C@H](CCCCN)NC(=O)CC[C@H](NC(=O)CCCCCCCCCCCCCCCCCCC(=O)O)C(=O)O)C(=O)N[C@@H](CC(N)=O)C(=O)N[C@@H]([C@@H](C)O)C(=O)N[C@@H](C)C(=O)N[C@@H]([C@@H](C)O)C(=O)N1)[C@@H](C)O)C(=O)N1CCC[C@H]1C(=O)N[C@@H](CO)C(=O)N[C@@H](CO)C(=O)N[C@H](C(=O)N[C@@H](CC(N)=O)C(=O)N[C@H](C(=O)NCC(=O)N[C@@H](CO)C(=O)N[C@@H](CCCNC(=N)N)C(=O)N[C@H](C(=O)N[C@@H](Cc1ccc(O)cc1)C(N)=O)[C@@H](C)O)C(C)C)[C@@H](C)O, also called compound 16)

More lines, now with the values behind:

Binder | Ratio hCT/hAmylin funct. [1] | hAmylin-R funct. EC50 [1] [nM] | hCTR funct. EC50 [2] [nM] | IC50 [3] [nM]
{C20 diacid-γGlu}-KCNTATCATQRLAEFLRHSSPNFGPILPPTNVGSNTY-NH2 (disulfide 2-7; SMILES CC[C@H](C)[C@H](NC(=O)[C@@H]1CCCN1C(=O)CNC(=O)[C@H](Cc1ccccc1)NC(=O)[C@H](CC(N)=O)NC(=O)[C@@H]1CCCN1C(=O)[C@H](CO)NC(=O)[C@H](CO)NC(=O)[C@H](Cc1c[nH]cn1)NC(=O)[C@H](CCCNC(=N)N)NC(=O)[C@H](CC(C)C)NC(=O)[C@H](Cc1ccccc1)NC(=O)[C@H](CCC(=O)O)NC(=O)[C@H](C)NC(=O)[C@H](CC(C)C)NC(=O)[C@H](CCCNC(=N)N)NC(=O)[C@H](CCC(N)=O)NC(=O)[C@@H](NC(=O)[C@H](C)NC(=O)[C@@H]1CSSC[C@H](NC(=O)[C@H](CCCCN)NC(=O)CC[C@H](NC(=O)CCCCCCCCCCCCCCCCCCC(=O)O)C(=O)O)C(=O)N[C@@H](CC(N)=O)C(=O)N[C@@H]([C@@H](C)O)C(=O)N[C@@H](C)C(=O)N[C@@H]([C@@H](C)O)C(=O)N1)[C@@H](C)O)C(=O)N[C@@H](CC(C)C)C(=O)N1CCC[C@H]1C(=O)N1CCC[C@H]1C(=O)N[C@H](C(=O)N[C@@H](CC(N)=O)C(=O)N[C@H](C(=O)NCC(=O)N[C@@H](CO)C(=O)N[C@@H](CC(N)=O)C(=O)N[C@H](C(=O)N[C@@H](Cc1ccc(O)cc1)C(N)=O)[C@@H](C)O)C(C)C)[C@@H](C)O, also called compound 6) | 5.7 | 0.128 | 0.729 | 0.996
{C20 diacid-γGlu}-KCNTATCATQRLAEFLRHSSPNFGAPLSSTNVGSNTP-NH2 (disulfide 2-7; SMILES CC(C)C[C@H](NC(=O)[C@H](CCCNC(=N)N)NC(=O)[C@H](CCC(N)=O)NC(=O)[C@@H](NC(=O)[C@H](C)NC(=O)[C@@H]1CSSC[C@H](NC(=O)[C@H](CCCCN)NC(=O)CC[C@H](NC(=O)CCCCCCCCCCCCCCCCCCC(=O)O)C(=O)O)C(=O)N[C@@H](CC(N)=O)C(=O)N[C@@H]([C@@H](C)O)C(=O)N[C@@H](C)C(=O)N[C@@H]([C@@H](C)O)C(=O)N1)[C@@H](C)O)C(=O)N[C@@H](C)C(=O)N[C@@H](CCC(=O)O)C(=O)N[C@@H](Cc1ccccc1)C(=O)N[C@@H](CC(C)C)C(=O)N[C@@H](CCCNC(=N)N)C(=O)N[C@@H](Cc1c[nH]cn1)C(=O)N[C@@H](CO)C(=O)N[C@@H](CO)C(=O)N1CCC[C@H]1C(=O)N[C@@H](CC(N)=O)C(=O)N[C@@H](Cc1ccccc1)C(=O)NCC(=O)N[C@@H](C)C(=O)N1CCC[C@H]1C(=O)N[C@@H](CC(C)C)C(=O)N[C@@H](CO)C(=O)N[C@@H](CO)C(=O)N[C@H](C(=O)N[C@@H](CC(N)=O)C(=O)N[C@H](C(=O)NCC(=O)N[C@@H](CO)C(=O)N[C@@H](CC(N)=O)C(=O)N[C@H](C(=O)N1CCC[C@H]1C(N)=O)[C@@H](C)O)C(C)C)[C@@H](C)O, also called compound 5) | 1 | 0.162 | 0.16 | 0.374
{C20 diacid-γGlu}-KCNTATCATQRLAEFLRHSSPNFGAPLSSTNVGSNTY-NH2 (disulfide 2-7; SMILES CC(C)C[C@H](NC(=O)[C@H](CCCNC(=N)N)NC(=O)[C@H](CCC(N)=O)NC(=O)[C@@H](NC(=O)[C@H](C)NC(=O)[C@@H]1CSSC[C@H](NC(=O)[C@H](CCCCN)NC(=O)CC[C@H](NC(=O)CCCCCCCCCCCCCCCCCCC(=O)O)C(=O)O)C(=O)N[C@@H](CC(N)=O)C(=O)N[C@@H]([C@@H](C)O)C(=O)N[C@@H](C)C(=O)N[C@@H]([C@@H](C)O)C(=O)N1)[C@@H](C)O)C(=O)N[C@@H](C)C(=O)N[C@@H](CCC(=O)O)C(=O)N[C@@H](Cc1ccccc1)C(=O)N[C@@H](CC(C)C)C(=O)N[C@@H](CCCNC(=N)N)C(=O)N[C@@H](Cc1c[nH]cn1)C(=O)N[C@@H](CO)C(=O)N[C@@H](CO)C(=O)N1CCC[C@H]1C(=O)N[C@@H](CC(N)=O)C(=O)N[C@@H](Cc1ccccc1)C(=O)NCC(=O)N[C@@H](C)C(=O)N1CCC[C@H]1C(=O)N[C@@H](CC(C)C)C(=O)N[C@@H](CO)C(=O)N[C@@H](CO)C(=O)N[C@H](C(=O)N[C@@H](CC(N)=O)C(=O)N[C@H](C(=O)NCC(=O)N[C@@H](CO)C(=O)N[C@@H](CC(N)=O)C(=O)N[C@H](C(=O)N[C@@H](Cc1ccc(O)cc1)C(N)=O)[C@@H](C)O)C(C)C)[C@@H](C)O, also called compound 7) [N^α1-[(4S)-4-carboxy-4-(19-carboxynonadecanoylamino)butanoyl]-[Glu14,Arg17,Pro21,Pro26]-h-amylin] | 4.5 | 0.255 | 1.16 | 0.674
